Measured values published in doi:10.1101/2021.11.08.467742 (bioRxiv, 2021).
Where a chain is given by its changes, count along the chain named. Numbers in names are those of the source.

B1: Escherichia coli FtsA, full length (natural protein, E. coli, UniProt P0ABH0 1-420, looked up)
chain: MIKATDRKLVVGLEIGTAKVAALVGEVLPDGMVNIIGVGSCPSRGMDKGGVNDLESVVKCVQRAIDQAELMADCQISSVYLALSGKHISCQNEIGMVPISEEEVTQEDVENVVHTAKSVRVRDEHRVLHVIPQEYAIDYQEGIKNPVGLSGVRMQAKVHLITCHNDMAKNIVKAVERCGLKVDQLIFAGLASSYSVLTEDERELGVCVVDIGGGTMDIAVYTGGALRHTKVIPYAGNVVTSDIAYAFGTPPSDAEAIKVRHGCALGSIVGKDESVEVPSVGGRPPRSLQRQTLAEVIEPRYTELLNLVNEEILQLQEKLRQQGVKHHLAAGIVLTGGAAQIEGLAACAQRVFHTQVRIGAPLNITGLTDYAQEPYYSTAVGLLHYGKESHLNGEAEVEKRVTASVGSWIKRLNSWLRKEF
notes: FtsA, Escherichia coli, full-length protein; also called EcFtsA; E. coli FtsA; source: E. coli C41(DE3), purified (HisTrap, chitin resin with intein cleavage, SEC); not shown: intein-CBD-12H, C-terminal, cleaved
B2: Escherichia coli FtsA E124A (FtsN suppressor mutant), full length (natural protein, E. coli, UniProt P0ABH0 1-420, looked up)
chain: B1 chain with E124A
notes: FtsA, Escherichia coli, full-length protein with E124A; also called EcFtsA^E124A; source: E. coli C41(DE3), purified (HisTrap, chitin resin with intein cleavage, SEC); not shown: intein-CBD-12H, C-terminal, cleaved
B3: Escherichia coli FtsA I143L (FtsN suppressor mutant), full length (natural protein, E. coli, UniProt P0ABH0 1-420, looked up)
chain: B1 chain with I143L
notes: FtsA, Escherichia coli, full-length protein with I143L; also called EcFtsA^I143L; source: E. coli C41(DE3), purified (HisTrap, chitin resin with intein cleavage, SEC); not shown: intein-CBD-12H, C-terminal, cleaved
B4: Escherichia coli FtsA G50E (ZipA suppressor and filament architecture mutant), full length (natural protein, E. coli, UniProt P0ABH0 1-420, looked up)
chain: B1 chain with G50E
notes: FtsA, Escherichia coli, full-length protein with G50E; also called EcFtsA^G50E; source: E. coli C41(DE3), purified (HisTrap, chitin resin with intein cleavage, SEC); not shown: intein-CBD-12H, C-terminal, cleaved

Target: the molecule itself
Assay: negative stain electron microscopy on supported lipid monolayers; full-length FtsA at 0.1-0.2 mg/ml with 1 mM ATP, without or with FtsN peptide (up to 10-fold molar excess), on E. coli polar lipid monolayers; binding buffer pH 7.7

Row | Protein | binding result
1 | B1 | binds
2 | B2 | binds
3 | B3 | binds
4 | B4 | binds
